Measured values reported in patent US11653679B2, “High-purity steviol glycosides” (PureCircle Sdn Bhd, priority 2014, dated 2023).

B1: UGT91D2: UDP-glucosyltransferase, Genbank accession no. ACE87855.1 (protein, UniProt B3VI56 1-473, looked up)
UDP-glycosyltransferase 91D2: MATSDSIVDDRKQLHVATFPWLAFGHILPYLQLSKLIAEKGHKVSFLSTTRNIQRLSSHISPLINVVQLTLPRVQELPEDAEATTDVHPEDIPYLKKASDGLQPEVTRFLEQHSPDWIIYDYTHYWLPSIAASLGISRAHFSVTTPWAIAYMGPSADAMINGSDGRTTVEDLTTPPKWFPFPTKVCWRKHDLARLVPYKAPGISDGYRMGLVLKGSDCLLSKCYHEFGTQWLPLLETLHQVPVVPVGLLPPEVPGDEKDETWVSIKKWLDGKQKGSVVYVALGSEVLVSQTEVVELALGLELSGLPFVWAYRKPKGPAKSDSVELPDGFVERTRDRGLVWTSWAPQLRILSHESVCGFLTHCGSGSIVEGLMFGHPLIMLPIFGDQPLNARLLEDKQVGIEIPRNEEDGCLTKESVARSLRSVVVEKEGEIYKANARELSKIYNDTKVEKEYVSQFVDYLEKNTRAVAIDHES
B2: UGT76G1: UDP-glucosyltransferase UGT76G1 [Stevia rebaudiana], Genbank AAR06912.1, SEQ ID NO:11 (protein, listed as Stevia rebaudiana)
chain: MENKTETTVRRRRRIILFPVPFQGHINPILQLANVLYSKGFSITIFHTNFNKPKTSNYPHFTFRFILDNDPQDERISNLPTHGPLAGMRIPIINEHGADELRRELELLMLASEEDEEVSCLITDALWYFAQSVADSLNLRRLVLMTSSLFNFHAHVSLPQFDELGYLDPDDKTRLEEQASGFPMLKVKDIKSAYSNWQILKEILGKMIKQTKASSGVIWNSFKELEESELETVIREIPAPSFLIPLPKHLTASSSSLLDHDRTVFQWLDQQPPSSVLYVSFGSTSEVDEKDFLEIARGLVDSKQSFLWVVRPGFVKGSTWVEPLPDGFLGERGRIVKWVPQQEVLAHGAIGAFWTHSGWNSTLESVCEGVPMIFSDFGLDQPLNARYMSDVLKVGVYLENGWERGEIANAIRRVMVDEEGEYIRQNARVLKQKADVSLMKGGSSYESLESLVSYISSL

Key:
Format in all cases: biochemical
[1] = Catalytic reaction Rebaudioside A to Rebaudioside D with in-vitro produced UGT91D2 (Example 5); conditions: after 120 h, in-vitro produced UGT91D2, 0.1 mM Rebaudioside A, 30° C.
Protocol: The total volume of the reaction was 0.5 mL with the following composition: 50 mM sodium phosphate buffer pH 7.2, 3 mM MgCl2, 3.8 mM UDP-glucose, 0.1 mM Rebaudioside A and 180 μL of in-vitro produced UGT91D2. The reactions were run at 30° C. on an orbitary shaker at 135 rpm. For each sample, 450 μl of reaction mixture was quenched with 45 μL of 2N H2SO4 and 405 μL of 60% MeOH. After centrifugation, the supernatant was analyzed by HPLC (CAD). HPLC indicated a 4.7% conversion of rebaudioside A to rebaudioside D after 120 h.

[2] = Transformation of Stevioside to Rebaudioside A with UGT76G1 lysate (Examples 4, 13), HPLC; conditions: in-vivo produced UGT76G1 thawed lysate, 0.5 mM Stevioside, 30° C., HPLC (CAD)
Protocol: The total volume of the reaction was 5.0 mL with the following composition: 50 mM sodium phosphate buffer pH 7.2, 3 mM MgCl2, 2.5 mM UDP-glucose, 0.5 mM Stevioside and 500 μl, of UGT76G1 thawed lysate. The reactions were run at 30° C. on an orbitary shaker at 135 rpm. For each sample, 460 μL of the reaction mixture was quenched with 40 μL of 2N H2SO4 and 420 μL of methanol/water (6/4). The samples were immediately centrifuged and kept at 10° C. before analysis by HPLC (CAD).
(§1) Activity tests were performed on a 5 mL scale with 500 μL of thawed lysate for the transformation of Stevioside to Rebaudioside A and Rebaudioside D to Rebaudioside M using 0.5 mM of substrate, 2.5 mM of UDP-Glucose and 3 mM MgCl2 in 50 mM Sodium Phosphate buffer at pH 7.2. Samples were taken and analyzed by HPLC.

[3] = Transformation of Rebaudioside D to Rebaudioside M with UGT76G1 (Examples 6, 13), HPLC; conditions: after 120 h, in-vitro produced UGT76G1, 0.5 mM Rebaudioside D, 30° C.
Protocol: The total volume of the reaction was 2 mL with the following composition: 50 mM sodium phosphate buffer pH 7.2, 3 mM MgCl2, 3.8 mM UDP-glucose, 0.5 mM Rebaudioside D and 180 μL of in-vitro produced UGT76G1. The reactions were run at 30° C. on an orbitary shaker at 135 rpm. For each sample, 400 μL of reaction mixture was quenched with 40 μL of 2N H2SO4 and 360 μL of 60% MeOH. After centrifugation, the supernatant was analyzed by HPLC (CAD).
as §1

[4] = Conversion of Rebaudioside E to Rebaudioside D with UGT76G1 lysate (Example 25); conditions: UGT76G1 thawed lysate, 0.5 mM Rebaudioside E, pH 7.5, 30° C.
Protocol: The total volume of the reaction was 5.0 mL with the following composition: 100 mM potassium phosphate buffer pH 7.5, 3 mM MgCl2, 2.5 mM UDP-glucose, 0.5 mM Rebaudioside E and 500 μL of UGT76G1 thawed lysate (UGT76G1 gene was cloned in pET30a+ vector and expressed in E. coli BL21 (DE3)). The reactions were run at 30° C. on an orbitary shaker at 135 rpm. For sampling 300 μL of the reaction mixture was quenched with 30 μL of 2N H2SO4 and 270 μL of methanol/water (6/4). The samples were immediately centrifuged and kept at 10° C. before analysis by HPLC (CAD detection).

Row | Molecule | conversion of rebaudioside A to rebaudioside D [1] | conversion of stevioside to rebaudioside A [2] | conversion of rebaudioside D to rebaudioside M [3] | conversion of Rebaudioside E to Rebaudioside D [4]
1 | B1 | 4.7% |  |  | 
2 | B2 |  | almost complete conversion | 80% | complete conversion
